Data on 1 substance can be found in publication doi:10.1101/2021.09.02.458738.

The target in the experiment is ArPEC25-mCherry (Ascochyta rabiei). Briefly: FRET or BRET. (Bioluminescence resonance energy transfer reports proximity on the nanometre scale.)

CaβLIM1a-GFP (natural protein) registered an FRET efficiency of 2.75.
